# Measured values as given in the Immune Epitope Database (IEDB).
# Columns and labels:
# [1] = target: HLA-A*02:01; experiment: IEDB peptide-MHC binding, purified MHC/competitive/radioactivity; ≥ and ≤ were set here for values at or beyond the usual limits of such assays
# [2] = target: HLA-A*69:01; experiment: IEDB peptide-MHC binding, purified MHC/direct/fluorescence; filed as Kd, often an IC50 or EC50 that approximates it; ≥ and ≤ were set here for values at or beyond the usual limits of such assays
# [3] = target: HLA-C*03:03; experiment: as above; conditions: source organism: Listeria monocytogenes EGD-e
# [4] = target: HLA-C*08:02; experiment: as above
# [5] = target: HLA-A*01:01; experiment: IEDB peptide-MHC binding, purified MHC/competitive/fluorescence; filed as Kd, often an IC50 or EC50 that approximates it; ≥ and ≤ were set here for values at or beyond the usual limits of such assays; conditions: source organism: Yersinia pestis Antiqua
# [6] = target: HLA-A*03:01; experiment: as above; conditions: source organism: Yersinia pestis Antiqua
# [7] = target: HLA-B*35:01; experiment: as above; conditions: source organism: Yersinia pestis Antiqua
# [8] = target: HLA-A*01:01; experiment: IEDB peptide-MHC binding, purified MHC/direct/fluorescence; filed as Kd, often an IC50 or EC50 that approximates it; ≥ and ≤ were set here for values at or beyond the usual limits of such assays
# [9] = target: HLA-A*02:01; experiment: as above
# [10] = target: HLA-A*03:01; experiment: as above
# [11] = target: HLA-A*23:01; experiment: as above
# [12] = target: HLA-A*24:02; experiment: as above
# [13] = target: HLA-A*24:03; experiment: as above
# [14] = target: HLA-A*26:01; experiment: as above
# [15] = target: HLA-A*26:02; experiment: as above; conditions: source organism: Vibrio vulnificus CMCP6
# [16] = target: HLA-A*31:01; experiment: as above
# [17] = target: HLA-A*68:02; experiment: as above
# [18] = target: HLA-B*07:02; experiment: as above
# [19] = target: HLA-B*15:01; experiment: as above
# [20] = target: HLA-B*18:01; experiment: as above
# [21] = target: HLA-B*27:05; experiment: as above
# [22] = target: HLA-B*39:01; experiment: as above
# [23] = target: HLA-B*57:01; experiment: as above
# [24] = target: HLA-B*58:01; experiment: as above
# [25] = target: HLA-A*11:01; experiment: IEDB peptide-MHC binding, purified MHC/competitive/fluorescence; filed as Kd, often an IC50 or EC50 that approximates it; ≥ and ≤ were set here for values at or beyond the usual limits of such assays; conditions: source organism: Vibrio vulnificus YJ016
# [26] = target: HLA-B*15:17; experiment: as above; conditions: source organism: Vibrio vulnificus YJ016
# [27] = target: HLA-C*05:01; experiment: IEDB peptide-MHC binding, purified MHC/direct/fluorescence; filed as Kd, often an IC50 or EC50 that approximates it; ≥ and ≤ were set here for values at or beyond the usual limits of such assays
# [28] = target: HLA-C*12:03; experiment: as above; conditions: source organism: Toxoplasma gondii ME49
# [29] = target: HLA-A*30:01; experiment: as above; conditions: source organism: Salmonella enterica subsp. enterica serovar Typhimurium
# [30] = target: HLA-B*08:01; experiment: as above
# [31] = target: HLA-B*40:01; experiment: as above
# [32] = target: HLA-B*44:02; experiment: as above
# [33] = target: HLA-B*73:01; experiment: as above; conditions: source organism: Salmonella enterica subsp. enterica serovar Typhimurium str. LT2
# [34] = target: HLA-A*11:01; experiment: as above
# [35] = target: HLA-A*26:03; experiment: as above; conditions: source organism: Campylobacter jejuni subsp. jejuni CG8486
# [36] = target: HLA-B*15:09; experiment: as above; conditions: source organism: Campylobacter jejuni subsp. jejuni CG8486
# [37] = target: HLA-B*15:17; experiment: as above; conditions: source organism: Campylobacter jejuni
# [38] = target: HLA-A*26:02; experiment: IEDB peptide-MHC binding, purified MHC/competitive/fluorescence; filed as Kd, often an IC50 or EC50 that approximates it; ≥ and ≤ were set here for values at or beyond the usual limits of such assays; conditions: source organism: Campylobacter jejuni subsp. jejuni NCTC 11168 = ATCC 700819
# [39] = target: HLA-B*08:02; experiment: IEDB peptide-MHC binding, purified MHC/direct/fluorescence; filed as Kd, often an IC50 or EC50 that approximates it; ≥ and ≤ were set here for values at or beyond the usual limits of such assays; conditions: source organism: Salmonella enterica subsp. enterica serovar Typhimurium str. LT2
# [40] = source organism: Vibrio vulnificus
# [41] = source organism: Vibrio vulnificus CMCP6
# [42] = source organism: Toxoplasma gondii
# [43] = source organism: Salmonella enterica
# [44] = source organism: Salmonella enterica subsp. enterica serovar Typhimurium
# [45] = source organism: Campylobacter jejuni
# [46] = source organism: Salmonella enterica subsp. enterica serovar Typhimurium str. LT2
sequence,measurement,setting,value
DLNTSAGFPYV,IC50,[1]; source organism: Rhinovirus C,500 nM
FLPDKAIDL,Kd,[2]; source organism: Bacillus anthracis,17 µM
same,Kd,[3],20 nM
same,Kd,[4]; source organism: Listeria monocytogenes EGD-e,47 nM
FVADSTPLY,Kd,[4]; source organism: Yersinia pestis Antiqua,≥ 20000 nM
same,Kd,[5],1.8 nM
same,Kd,[6],≥ 20 µM
same,Kd,[7],≤ 0.1 nM
PHPVVVRTL,Kd,[8]; [40],≥ 20 µM
same,Kd,[9]; [40],≥ 20 µM
same,Kd,[10]; [40],≥ 20 µM
same,Kd,[11]; [40],≥ 20000 nM
same,Kd,[12]; [40],18 µM
same,Kd,[13]; [40],≥ 20000 nM
same,Kd,[14]; [41],≥ 20 µM
same,Kd,[15],≥ 20 µM
same,Kd,[16]; [40],≥ 20 µM
same,Kd,[17]; [40],≥ 20 µM
same,Kd,[2]; [40],≥ 20 µM
same,Kd,[18]; [40],≥ 20 µM
same,Kd,[19]; [40],0.775 µM
same,Kd,[20]; [40],≥ 20 µM
same,Kd,[21]; [40],≥ 20 µM
same,Kd,[22]; [41],≥ 20 µM
same,Kd,[23]; [40],≥ 20 µM
same,Kd,[24]; [40],≥ 20 µM
same,Kd,[25],≥ 20 µM
same,Kd,[26],≥ 20 µM
QYDVPMVSF,Kd,[13]; source organism: Mycobacterium tuberculosis,18.4 nM
same,Kd,[27]; source organism: Mycobacterium tuberculosis H37Rv,≥ 20000 nM
RATSHVPEF,Kd,[23]; [42],≥ 20 µM
same,Kd,[24]; [42],≥ 20 µM
same,Kd,[27]; source organism: Toxoplasma gondii ME49,≥ 20000 nM
same,Kd,[28],148 nM
RKAGVNQAK,Kd,[8]; [43],≥ 20 µM
same,Kd,[9]; [43],≥ 20 µM
same,Kd,[10]; [44],≥ 20 µM
same,Kd,[14]; [43],≥ 20 µM
same,Kd,[29],12.9 µM
same,Kd,[16]; [43],≥ 20 µM
same,Kd,[2]; [43],≥ 20 µM
same,Kd,[18]; [43],≥ 20 µM
same,Kd,[30]; [43],≥ 20 µM
same,Kd,[19]; [43],≥ 20 µM
same,Kd,[21]; [44],0.224 µM
same,Kd,[31]; [43],≥ 20000 nM
same,Kd,[32]; [43],≥ 20 µM
same,Kd,[24]; [43],≥ 20 µM
same,Kd,[33],≥ 20 µM
RTFSPTYGL,IC50,[1]; source organism: Homo sapiens,408 nM
SLDQSVVEL,Kd,[27]; source organism: Chlamydia trachomatis,51 nM
TVLEYLVSFGV,IC50,[1]; source organism: Hepatitis B virus,294 nM
WFGHLASDW,Kd,[8]; [45],≥ 20 µM
same,Kd,[9]; [45],≥ 20 µM
same,Kd,[10]; [45],≥ 20 µM
same,Kd,[34]; [45],≥ 20 µM
same,Kd,[11]; [45],340 nM
same,Kd,[12]; [45],1.6 µM
same,Kd,[13]; [45],21.5 nM
same,Kd,[35],≥ 20 µM
same,Kd,[16]; [45],≥ 20 µM
same,Kd,[17]; [45],≥ 20 µM
same,Kd,[2]; [45],≥ 20 µM
same,Kd,[18]; [45],≥ 20 µM
same,Kd,[19]; [45],7 µM
same,Kd,[36],≥ 20 µM
same,Kd,[37],≥ 20 µM
same,Kd,[20]; [45],≥ 20 µM
same,Kd,[21]; [45],≥ 20 µM
same,Kd,[22]; source organism: Campylobacter jejuni subsp. jejuni CG8486,≥ 20 µM
same,Kd,[23]; [45],≥ 20 µM
same,Kd,[24]; [45],13 µM
same,Kd,[38],≥ 20 µM
YSDIFNNVL,Kd,[8]; [44],0.075 µM
same,Kd,[10]; [44],≥ 20 µM
same,Kd,[34]; [44],≥ 20 µM
same,Kd,[12]; [44],≥ 20 µM
same,Kd,[14]; [46],≥ 20 µM
same,Kd,[16]; [44],≥ 20 µM
same,Kd,[18]; [44],≥ 20 µM
same,Kd,[30]; [46],≥ 20 µM
same,Kd,[39],≥ 20 µM
same,Kd,[19]; [44],≥ 20 µM
same,Kd,[21]; [44],≥ 20 µM
same,Kd,[31]; [44],396 nM
same,Kd,[32]; [44],≥ 20 µM
same,Kd,[24]; [44],≥ 20 µM
same,Kd,[27]; [46],5 nM
